Kd data for three substances are collected here from patent publication US20240301362A1.

The target in this experiment is CD46 (UniProt P15529). The experiment in a line: Kd determination, method not stated (column head 'Kd (Oleks)').
Chain of UniProt P15529 (P15529 35-343): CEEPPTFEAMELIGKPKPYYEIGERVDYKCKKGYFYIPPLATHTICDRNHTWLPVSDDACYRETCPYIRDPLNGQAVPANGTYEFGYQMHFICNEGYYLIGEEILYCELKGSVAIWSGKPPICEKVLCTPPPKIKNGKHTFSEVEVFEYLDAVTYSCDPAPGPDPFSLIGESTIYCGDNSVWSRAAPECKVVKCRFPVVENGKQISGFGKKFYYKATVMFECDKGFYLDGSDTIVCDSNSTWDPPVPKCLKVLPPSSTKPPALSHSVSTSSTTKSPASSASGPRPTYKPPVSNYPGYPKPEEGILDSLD
In turn, Ad11 knob (from UniProt P35774 123-325) gave an equilibrium dissociation constant (Kd) of 11.2 nM. In other words, the double-digit nanomolar range. To “Mutated Ad35 Knob A8: Ile192Val Ile256Val (from UniProt Q92854)” belongs 13.7 nM; to wtAd35(207Asp) knob, 15 nM.
